Data on four proteins can be found in patent publication US11491212.

In data set [1] the target is Factor X (FX), active site titrated and DFP/EGR-cmk treated zymogen, P00742.
In data set [2] the target is Factor VIIIa (FVIIIa), P00451.
Chain of Factor VIIIa (FVIIIa), P00451 (P00451 other isoform, or with tags, fused parts or gaps): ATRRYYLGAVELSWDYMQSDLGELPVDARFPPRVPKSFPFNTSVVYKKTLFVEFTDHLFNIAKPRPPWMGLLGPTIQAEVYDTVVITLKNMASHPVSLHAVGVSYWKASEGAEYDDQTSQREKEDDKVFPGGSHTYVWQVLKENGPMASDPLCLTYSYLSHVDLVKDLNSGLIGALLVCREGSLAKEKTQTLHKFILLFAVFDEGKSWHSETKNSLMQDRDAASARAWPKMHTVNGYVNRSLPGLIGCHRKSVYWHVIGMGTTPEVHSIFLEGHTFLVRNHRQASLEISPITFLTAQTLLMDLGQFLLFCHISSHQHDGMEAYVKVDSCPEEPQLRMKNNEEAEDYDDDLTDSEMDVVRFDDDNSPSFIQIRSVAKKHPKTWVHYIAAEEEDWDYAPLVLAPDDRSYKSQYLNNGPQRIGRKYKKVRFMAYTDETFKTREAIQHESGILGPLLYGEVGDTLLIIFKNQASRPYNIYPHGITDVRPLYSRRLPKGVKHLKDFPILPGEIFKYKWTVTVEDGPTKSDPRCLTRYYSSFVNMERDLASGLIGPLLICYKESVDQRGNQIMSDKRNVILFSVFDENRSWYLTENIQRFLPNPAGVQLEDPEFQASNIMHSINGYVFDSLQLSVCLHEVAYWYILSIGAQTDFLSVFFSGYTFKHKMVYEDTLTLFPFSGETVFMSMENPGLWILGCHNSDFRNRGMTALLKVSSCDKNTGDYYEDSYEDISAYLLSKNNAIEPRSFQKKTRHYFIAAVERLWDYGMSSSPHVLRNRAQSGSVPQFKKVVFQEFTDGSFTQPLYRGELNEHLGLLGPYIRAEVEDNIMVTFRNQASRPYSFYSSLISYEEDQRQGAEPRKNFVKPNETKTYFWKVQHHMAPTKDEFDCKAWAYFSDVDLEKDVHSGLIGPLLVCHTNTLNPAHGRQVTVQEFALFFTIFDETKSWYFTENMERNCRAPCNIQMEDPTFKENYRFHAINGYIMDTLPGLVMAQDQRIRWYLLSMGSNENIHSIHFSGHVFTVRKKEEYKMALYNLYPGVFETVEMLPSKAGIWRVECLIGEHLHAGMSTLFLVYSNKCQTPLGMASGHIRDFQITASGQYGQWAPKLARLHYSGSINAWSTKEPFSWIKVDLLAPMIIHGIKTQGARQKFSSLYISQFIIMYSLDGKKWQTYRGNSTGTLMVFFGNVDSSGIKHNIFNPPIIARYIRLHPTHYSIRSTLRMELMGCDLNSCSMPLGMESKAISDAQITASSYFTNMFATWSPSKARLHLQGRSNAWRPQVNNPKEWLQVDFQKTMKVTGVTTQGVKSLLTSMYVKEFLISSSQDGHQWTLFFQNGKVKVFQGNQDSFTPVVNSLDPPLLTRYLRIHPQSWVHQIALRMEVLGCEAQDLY

Chain of Factor X (FX), P00742 (P00742 whole entry, looked up): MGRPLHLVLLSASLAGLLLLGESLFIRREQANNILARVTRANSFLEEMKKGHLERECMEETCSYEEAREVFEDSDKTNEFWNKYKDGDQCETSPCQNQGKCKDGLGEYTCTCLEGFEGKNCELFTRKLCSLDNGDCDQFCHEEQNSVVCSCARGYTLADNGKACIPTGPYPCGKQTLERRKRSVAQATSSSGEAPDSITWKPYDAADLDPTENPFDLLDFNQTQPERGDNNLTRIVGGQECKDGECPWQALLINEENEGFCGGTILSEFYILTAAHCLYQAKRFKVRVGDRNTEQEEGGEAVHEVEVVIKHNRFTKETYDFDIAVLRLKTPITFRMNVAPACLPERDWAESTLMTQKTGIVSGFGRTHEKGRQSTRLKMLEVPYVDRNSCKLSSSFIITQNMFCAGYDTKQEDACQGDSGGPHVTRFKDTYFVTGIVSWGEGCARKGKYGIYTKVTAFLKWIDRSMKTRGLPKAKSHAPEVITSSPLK
Chain of Factor X (FX), active site titrated and DFP/EGR-cmk treated zymogen, P00742 (P00742 whole entry, looked up): as above
Chain of Factor X, P00742 (P00742 whole entry, looked up): as above

B1: FIXa-R318Y/R338E/E410N (protein)
chain 1: not shown
chain 2: not shown
For the protein B1, the “catalytic activity (kcat/KM for activation of FX)” value in data set [1] is listed as “displayed some of the greatest increases in catalytic activity”.

B2: FIXa-R338E/T343R/R403E/E410N (protein)
chain 1: not shown
chain 2: not shown
In the case of B2, in the data set with Factor X (FX), P00742, the Michaelis-Menten constant (KM) is 0.0347 µM. In the data set with Factor X, P00742, the kcat/KM was 3e+08 M⁻¹ s⁻¹.

B3: FIX of SEQ ID NO:394, with the replacements R318Y/R338E/T343R (activated form, FIXa) (protein)
chain 1: not shown
chain 2: not shown
B3: in the data set with Factor X (FX), P00742, the Cofactor-Dependent Indirect kcat/KM (M-1s-1), FX activation is 1.2e+08 M⁻¹ s⁻¹; the Fold Increase over BeneFIX FIX (kcat/KM, FX activation) stood at 2.8 fold; the Pro-coagulant Activity, Fold Change (in vitro) was 2.8 fold. In data set [2], the FIX activity (mean) at 5 ng/mL FVIIIa, Test 1 came to 278; the FIX activity (mean) at 10 ng/mL FVIIIa, Test 2 came out at 479; the FIX activity (mean) at 15 ng/mL FVIIIa, Test 3 came to 622; the Fold increase after FVIIIa addition (5 ng/mL), Test 1 was found to be 225 fold. In data set [2], the Fold increase after FVIIIa addition (10 ng/mL), Test 2 is 384 fold; the Fold increase after FVIIIa addition (15 ng/mL), Test 3 was determined as 486 fold; the Ratio (CB2679d vs BeneFIX) of FIX activity at 5 ng/mL FVIIIa amounted to 2; the Ratio (CB2679d vs BeneFIX) of FIX activity at 10 ng/mL FVIIIa amounted to 2. Further, the Ratio (CB2679d vs BeneFIX) of FIX activity at 15 ng/mL FVIIIa in data set [2] is 2.

B4: FIXa-R318Y/R338E/T343R (activated CB 2679d, FIX of SEQ ID NO:394) (protein)
chain 1: not shown
chain 2: not shown
As to B4, the “catalytic efficiency for the activation of FX” value in data set [1] is recorded as “approximately 3-fold enhanced catalytic efficiency for the activation of FX”.

One may read the KM as the concentration of substrate that gives half-maximal velocity. What is called kcat/KM is the second-order rate constant that governs catalysis at low substrate concentration.
